# Molecular target: SARS-CoV papain-like protease (PLpro), trypsin-trimmed product of P-PLpro(C2)-His6 (SARS-CoV)
substance,measurement,value
ISG15-AMC (full-length) (from UniProt P05161 1-157),"kcat/KM of hydrolysis of ISG15-AMC by PLpro (fluorescence, pH 7.8, 25 °C)",602000 M⁻¹ s⁻¹

# From PMC7094341
